Source: patent US5723594, “High affinity PDGF nucleic acid ligands” (NeXstar Pharmaceuticals, Inc.)

Assays:
Conditions in all cases: tags: R&D Systems, carrier-free, E. coli produced; chain copies: 2 (homodimer, inferred); label: 5'-32P; three-way helix junction
[1] = target: T1, PDGF-BB (Homo sapiens, UniProt P01127 P01127:82-190); assay: cell_activity; slightly less efficient than 36t; thymidine incorporation
Procedure: (§1) The incorporation of [^3H]thymidine into PAE cells expressing PDGF β-receptor in response to 20 ng/ml of PDGF-BB or 10% fetal calf serum and in the presence of different concentrations of DNA ligands was performed as described (Mori et al., (1991) *J. Biol. Chem.* 266, 21158–21164). After incubation for 24 h at 37° C., ^3H-radioactivity incorporated into DNA was determined using a β-counter.
(§2) We furthermore investigated the ability of the DNA ligands to inhibit the mitogenic effects of PDGF-BB on PAE cells expressing PDGF β-receptors. […] The control ligand T39 had no effect. Moreover, none of the ligands inhibited the stimulatory effects of fetal calf serum on [^3H]thymidine incorporation in these cells, showing that the inhibitory effects are specific for PDGF.

[2] = target: T1, PDGF-BB; assay: cell_activity; inhibition of thymidine incorporation in PAE cells expressing PDGF beta-receptor, 20 ng/ml PDGF-BB
Procedure: as §1, §2

[3] = target: T1, PDGF-BB; assay: cell_activity; slightly more efficient than 36t; thymidine incorporation
Procedure: as §1, §2

T1 sequence (P01127 82-190, one chain of several): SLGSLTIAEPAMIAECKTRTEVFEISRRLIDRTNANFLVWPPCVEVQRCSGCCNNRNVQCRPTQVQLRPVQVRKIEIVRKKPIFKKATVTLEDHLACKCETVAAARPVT

TGGGAGGGCGCGTTCTTCGTGGTTACTTTTAGTCCCGT (ssDNA, 3'-3' linked inverted T at 3' end) [20t] was tested, and the IC50 [1] was > 2.5 nM.

With CACAGGCTACGGCACGTAGAGCATCACCATGATCCTGTGT (ssDNA, 3'-3' linked inverted T at 3' end) [36t] the IC50 [2] was 2.5 nM.

For TACTCAGGGCACTGCAAGCAATTGTGGTCCCAATGGGCTGAGTAT (ssDNA, 3'-3' linked inverted T at 3' end) [41t], the IC50 [3] was < 2.5 nM.
